Measurements from patent publication US20100075898A1 (BEN GURION UNIVERSITY OF THE NEGEV RESEARCH AND DEVELOPMENT …, published 2010).
Each block holds one binder with its values, some of them ahead of it.

What was measured:
[1] = target: T1, purified rat brain HK-I (Hexokinase 1) (rat, UniProt P05708 1-918); assay: channel currents of planar-lipid-bilayer-reconstituted VDAC1 before and after addition of HK-I
T1 construct: Purified from rat brain; immobilised on the SPR chip or added (28 mU/ml) to bilayer-reconstituted VDAC1; also called HK-1
T1 sequence (looked up): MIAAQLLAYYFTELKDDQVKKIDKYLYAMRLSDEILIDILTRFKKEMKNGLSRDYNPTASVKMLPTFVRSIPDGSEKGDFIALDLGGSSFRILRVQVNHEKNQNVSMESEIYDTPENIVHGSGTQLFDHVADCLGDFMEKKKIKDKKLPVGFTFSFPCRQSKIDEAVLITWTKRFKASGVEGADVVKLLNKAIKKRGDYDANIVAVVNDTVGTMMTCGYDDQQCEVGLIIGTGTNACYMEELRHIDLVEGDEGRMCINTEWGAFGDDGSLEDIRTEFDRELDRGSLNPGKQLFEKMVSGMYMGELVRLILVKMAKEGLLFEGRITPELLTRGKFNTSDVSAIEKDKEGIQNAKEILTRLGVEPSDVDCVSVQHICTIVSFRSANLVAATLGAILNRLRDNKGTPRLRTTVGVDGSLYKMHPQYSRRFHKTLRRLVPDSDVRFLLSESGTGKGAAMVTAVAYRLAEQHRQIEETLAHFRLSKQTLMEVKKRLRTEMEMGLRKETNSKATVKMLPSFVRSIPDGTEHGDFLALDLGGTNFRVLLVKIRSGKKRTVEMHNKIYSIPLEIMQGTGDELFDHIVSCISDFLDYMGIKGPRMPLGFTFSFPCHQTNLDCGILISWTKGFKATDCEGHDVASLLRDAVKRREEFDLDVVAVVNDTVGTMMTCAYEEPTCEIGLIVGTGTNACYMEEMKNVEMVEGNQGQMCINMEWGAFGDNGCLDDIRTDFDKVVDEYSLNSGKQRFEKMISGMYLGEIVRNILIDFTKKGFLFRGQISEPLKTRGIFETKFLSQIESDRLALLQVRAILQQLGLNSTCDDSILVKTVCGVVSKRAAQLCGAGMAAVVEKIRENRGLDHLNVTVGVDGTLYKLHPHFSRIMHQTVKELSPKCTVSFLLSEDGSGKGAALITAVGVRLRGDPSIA
Procedure: (§1) The dashed lines indicate the zero and the maximal current levels.
(§2) Briefly, PLB were prepared from soybean asolectin dissolved in n-decane (50 mg/ml) in a chamber containing 10 mM Hepes/KOH, pH 7.4 and 0.5 or 1M NaCl (cis/trans). Only PLBs with a resistance greater than 100 GΩ were used. Purified VDAC (about 1 ng) was added to the chamber defined as the cis side. After insertion of one or more channels into the PLB, excess protein was removed by perfusion of the cis chamber with 20 volumes of a same solution. Currents were recorded under voltage-clamp mode using a Bilayer Clamp amplifier (Warner Instruments, Hamden, Conn.). Currents were measured with respect to the trans side of the membrane (ground). The currents were low-pass filtered at 1 kHz, using a Bessal filter (Frequency Devices, Haverhill, Mass.) and digitized on-line using a Digidata 1200 interface board and pCLAMP 6 software (Axon Instruments). Sigma Plot 2000 scientific software was used for data analyses. Experiments were performed at 23-25° C. […] N-terminal VDAC1 peptides were diluted in running buffer (150 mM NaCl, 0.005% Tween-20, 4% (V/V) DMSO, 10 mM PBS, pH, 7.4) and injected onto the sensor chip at varying concentrations at a flow rate of 40 μl/min at 25° C.

[2] = target: T1, purified rat brain HK-I (Hexokinase 1); assay: channel currents of planar-lipid-bilayer-reconstituted mVDAC1 before and after addition of HK-I (28 mU/ml)
Procedure: as §1, §2

[3] = target: T2, native mVDAC1 (mouse VDAC1)
T2 chain: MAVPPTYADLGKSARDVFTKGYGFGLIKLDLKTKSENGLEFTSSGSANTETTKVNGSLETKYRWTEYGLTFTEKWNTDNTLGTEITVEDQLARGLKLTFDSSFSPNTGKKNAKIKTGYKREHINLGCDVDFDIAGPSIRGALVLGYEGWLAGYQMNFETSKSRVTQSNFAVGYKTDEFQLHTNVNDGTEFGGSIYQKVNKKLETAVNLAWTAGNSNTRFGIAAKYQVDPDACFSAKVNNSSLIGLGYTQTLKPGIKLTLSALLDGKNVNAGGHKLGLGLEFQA

[4] = target: T3, Δ(1-26)mVDAC1 (N-terminal truncated mouse VDAC1 lacking amino acids 1-26)
T3 chain: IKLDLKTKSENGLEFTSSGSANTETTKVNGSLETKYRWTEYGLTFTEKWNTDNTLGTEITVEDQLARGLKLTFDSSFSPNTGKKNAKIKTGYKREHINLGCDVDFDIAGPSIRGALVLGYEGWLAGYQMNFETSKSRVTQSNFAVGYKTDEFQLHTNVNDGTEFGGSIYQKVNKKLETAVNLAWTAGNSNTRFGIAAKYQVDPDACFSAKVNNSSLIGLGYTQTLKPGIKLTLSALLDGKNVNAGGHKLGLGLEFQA

binding result [1]: no binding (tested: 28 mU/ml)
B1: Δ(1-26)mVDAC1 (N-terminal truncated mouse VDAC1 lacking amino acids 1-26) (other)
chain: T3 chain
notes: Expressed in porin-less yeast, purified and reconstituted into planar lipid bilayers; also called N-terminus truncated protein; truncated version of VDAC1

binding result [2]: binds
B2: native mVDAC1 (mouse VDAC1) (other)
chain: T2 chain
notes: Native full-length mouse VDAC1 expressed in porin-less yeast, purified and reconstituted into planar lipid bilayers; also called native VDAC1; bilayer-reconstituted native VDAC1

B3: purified rat brain HK-I (Hexokinase 1) (protein)
chain: T1 sequence (looked up)
channel activity (currents) of bilayer-reconstituted VDAC1 [3]: addition of HK-I to bilayer-reconstituted native VDAC1 induced the channel to fluctuate between the fully open, sub-conducting state to a stable, long-lived low-conducting state
channel activity (currents) of bilayer-reconstituted VDAC1 [4]: HK-I had no effect on channel activity of the truncated version of VDAC1
